Patent publication US20120114659A1 (published 2012)

Biological target: T1, human NPRA on HEK cells loaded with BNP (human, UniProt P16860 103-134)
T1 sequence: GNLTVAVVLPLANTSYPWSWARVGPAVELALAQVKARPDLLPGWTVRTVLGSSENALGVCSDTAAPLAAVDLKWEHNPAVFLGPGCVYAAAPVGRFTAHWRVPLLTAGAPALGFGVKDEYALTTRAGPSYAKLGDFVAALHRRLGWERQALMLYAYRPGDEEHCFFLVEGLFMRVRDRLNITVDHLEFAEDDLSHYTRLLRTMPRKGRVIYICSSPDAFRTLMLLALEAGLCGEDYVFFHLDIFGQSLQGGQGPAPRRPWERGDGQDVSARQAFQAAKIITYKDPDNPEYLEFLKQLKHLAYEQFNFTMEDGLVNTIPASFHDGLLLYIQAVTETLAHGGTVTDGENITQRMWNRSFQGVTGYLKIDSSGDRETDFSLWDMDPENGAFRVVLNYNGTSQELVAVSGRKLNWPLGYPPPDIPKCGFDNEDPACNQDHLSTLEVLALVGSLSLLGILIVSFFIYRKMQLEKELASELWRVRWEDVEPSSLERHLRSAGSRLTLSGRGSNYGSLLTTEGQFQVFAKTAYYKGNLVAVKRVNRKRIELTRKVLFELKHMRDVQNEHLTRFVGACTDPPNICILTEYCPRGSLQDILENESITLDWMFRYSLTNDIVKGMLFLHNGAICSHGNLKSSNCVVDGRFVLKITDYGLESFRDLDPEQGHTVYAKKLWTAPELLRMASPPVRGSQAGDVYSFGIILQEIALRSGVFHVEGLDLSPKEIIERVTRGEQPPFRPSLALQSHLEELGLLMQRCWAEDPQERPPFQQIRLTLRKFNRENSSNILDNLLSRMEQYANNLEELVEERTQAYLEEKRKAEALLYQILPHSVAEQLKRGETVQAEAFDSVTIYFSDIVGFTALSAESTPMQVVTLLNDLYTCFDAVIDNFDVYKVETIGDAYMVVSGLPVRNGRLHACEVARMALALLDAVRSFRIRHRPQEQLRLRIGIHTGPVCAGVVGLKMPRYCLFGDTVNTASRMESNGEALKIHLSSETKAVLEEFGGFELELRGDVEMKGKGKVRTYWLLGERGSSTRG
T1 sequence (peptide): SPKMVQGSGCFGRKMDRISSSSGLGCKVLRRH
Test: cell-based or functional assay

B1: 5064 Fab (Fab, V domains shown)
VH: QVQLQQSGPGLVKPSQTLSLTCAISGDSVSSRSASWSWIRQSPGRGLEWLGRIYYRSKWYNDYAVSVKSRITINPDTSKNQFSLQLNSVTPEDTAVYYCARMDVPSFRYFDVWGQGTLVTVSS
VL: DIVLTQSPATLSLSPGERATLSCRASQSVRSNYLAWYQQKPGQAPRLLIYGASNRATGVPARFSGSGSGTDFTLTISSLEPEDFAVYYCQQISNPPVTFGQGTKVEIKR
fold decrease of the EC50 of BNP (cGMP, HEK NPRA cells, 400 nM Fab): 2 fold
